# Test results published in the RNAGym collection of RNA variant scans (doi:10.1021/acssynbio.7b00057).
# B1: Pistol ribozyme (parent)
# chain: GGGUCGUUGUUCCAUAAUCGCGUGGAUAUGGCACGCAAGUUUCUACCGGGCACCGUAAAUGUCCGACUGGAGCCGUUCGGGCGGCUAUAAACAGACCUCAGGCCCGAAGCGUGGCGGCACCUGCCGCCGGUGGUAAAAAAGAUCGGAAGAGCACACGUCU
# Variants of: B1
# Test: aptazyme ON/OFF ratio, guanine; higher = stronger switching; co-transcriptional cleavage with and without guanine
row,Variant,aptazyme ON/OFF ratio
1,U8A G9U U10G U11C C12U,1.01
2,U8A G9U U10G U11C C12G,1.07
3,U8A G9U U10G U11C C12A,1.04
4,U8A G9U U10C C13U,1.15
5,U8A U10A U11A C13A,1.12
6,U8A U10A U11A C13G,1.16
7,U8A U10A U11A C13U,1.06
8,U8A G9U U10C U11G C13G,1.05
9,U8A G9U U10C U11G C13A,1.12
10,U8A G9U U10C U11G C13U,1.14
11,U8A U10C U11A C12G C13U,1.34
12,U8A U10C U11A C12G C13A,1.15
13,U8A U10C U11A C12G C13G,1.39
14,U8A U10A U11G C12A C13A,1.13
15,U8A U10A U11G C12A C13G,1.3
16,U8A U10A U11G C12A C13U,1.07
17,U8A G9U U11G C12G C13A,1.25
18,U8A G9U U11G C12G C13U,1.16
19,U8A G9U U11G C12G C13G,1.24
20,U8A G9U U10G C13U,1.55
21,U8A G9U U10G C13G,1.13
22,U8A G9U U10G C13A,1.18
23,U8A U10C U11A,1.15
24,U8A U10C U11C,1.01

row,Variant,aptazyme ON/OFF ratio
1,U8A U10C U11G,1.18
2,U8A U10G C12U C13U,1.36
3,U8A U10G C12U C13G,1.23
4,U8A U10G C12U C13A,1.32
5,U8A U10G U11C C12U C13A,1.3
6,U8A U10G U11C C12U C13U,1.2
7,U8A U10G U11C C12U C13G,1.27
8,U8A U10A U11C C12G C13G,1.27
9,U8A U10A U11C C12G C13U,1.16
10,U8A U10A U11C C12G C13A,1.1
11,U8A U10A U11G C12U C13G,1.45
12,U8A U10A U11G C12U C13U,1.4
13,U8A U10A U11G C12U C13A,1.2
14,U8A G9U U11A,1.79
15,U8A G9U U11C,1.03
16,U8A G9U U11G,1.63
17,U8A G9U U10C U11A C12U C13U,1.15
18,U8A G9U U10C U11A C12U C13G,1.1
19,U8A G9U U10C U11A C12U C13A,1.26
20,U8A G9U U10G U11C C12A C13G,1.03
21,U8A G9U U10G U11C C12A C13U,1.15
22,U8A G9U U10G U11C C12A C13A,1.09
23,U8A G9U U10G,1.61
24,U8A U10C U11C C12G C13U,1.11

row,Variant,aptazyme ON/OFF ratio
1,U8A U10C U11C C12G C13G,1.1
2,U8A U10C U11C C12G C13A,1.21
3,U8A G9U U11G C12A C13A,1.11
4,U8A G9U U11G C12A C13G,1.41
5,U8A G9U U11G C12A C13U,1.23
6,U8A U10G U11A,1.09
7,U8A U10G U11C,1.02
8,U8A U10C U11C C12U C13U,1.04
9,U8A U10C U11C C12U C13A,1.05
10,U8A U10C U11C C12U C13G,1.06
11,U8A G9U U10G U11A C12A C13A,1.22
12,U8A G9U U10G U11A C12A C13U,1.47
13,U8A G9U U10G U11A C12A C13G,1.16
14,U8A G9U U11A C12U C13G,1.09
15,U8A G9U U11A C12U C13A,1.52
16,U8A G9U U11A C12U C13U,1.08
17,U8A G9U U10C U11C C12G C13G,1.08
18,U8A G9U U10C U11C C12G C13U,1.02
19,U8A G9U U10C U11C C12G C13A,1.07
20,U8A U10C C12U C13U,1.35
21,U8A U10C C12U C13A,1.22
22,U8A U10C C12U C13G,1.11
23,U8A G9U U10G U11G C12A C13G,1.14
24,U8A G9U U10G U11G C12A C13U,1.26

row,Variant,aptazyme ON/OFF ratio
1,U8A G9U U10G U11G C12A C13A,1.16
2,U8A G9U U10C U11G C12U C13G,1.14
3,U8A G9U U10C U11G C12U C13U,1.25
4,U8A G9U U10C U11G C12U C13A,1.11
5,U8A G9U U11C C12A,1
6,U8A G9U U11C C12G,1.08
7,U8A G9U U11C C12U,1.13
8,U8A U10A U11C C12A C13A,1.08
9,U8A U10A U11C C12A C13U,1.19
10,U8A U10A U11C C12A C13G,1.06
11,U8A G9U U10C U11C C12U,1.04
12,U8A G9U U10C U11C C12G,1.03
13,U8A G9U U10C U11C C12A,1.01
14,U8A U10C U11C C13A,1.01
15,U8A U10C U11C C13U,1.02
16,U8A U10C U11C C13G,1.04
17,U8A U10A U11G C12G C13G,1.15
18,U8A U10A U11G C12G C13A,1.06
19,U8A U10A U11G C12G C13U,1.27
20,U8A G9U U10C U11C C13G,1.01
21,U8A G9U U10C U11C C13A,1
22,U8A G9U U10C U11C C13U,1.03
23,U8A G9U U10G U11A C12G C13G,1.31
24,U8A G9U U10G U11A C12G C13A,1.27

row,Variant,aptazyme ON/OFF ratio
1,U8A G9U U10G U11A C12G C13U,1.28
2,U8A U10A U11G C12A,1.12
3,U8A U10A U11G C12G,1.36
4,U8A U10A U11G C12U,1.52
5,U8A G9U U11C C12G C13G,1.16
6,U8A G9U U11C C12G C13U,1.16
7,U8A G9U U11C C12G C13A,1.14
8,U8A G9U U11G C13G,1.08
9,U8A G9U U11G C13U,1.24
10,U8A G9U U11G C13A,1.14
11,U8A U10A U11G C13G,1.14
12,U8A U10A U11G C13U,1.13
13,U8A U10A U11G C13A,1.18
14,U8A U10C U11A C13U,1.07
15,U8A U10C U11A C13A,1.17
16,U8A U10C U11A C13G,1.07
17,U8A G9U U10G U11C C13G,1.04
18,U8A G9U U10G U11C C13A,1.03
19,U8A G9U U10G U11C C13U,1.02
20,U8A U10G U11C C12G C13G,1.25
21,U8A U10G U11C C12G C13A,1.41
22,U8A U10G U11C C12G C13U,1.38
23,U8A U10G U11C C12A,1.49
24,U8A U10G U11C C12G,1.53

row,Variant,aptazyme ON/OFF ratio
1,U8A U10G U11C C12U,1.04
2,U8A G9U U10G U11C,1.06
3,U8A G9U U10G U11G,1.09
4,U8A G9U U10G U11A,1.07
5,U8A U10C C12G,1.3
6,U8A U10C C12U,3.12
7,U8A U10C C12A,1.31
8,U8A G9U U10G U11G C12U C13G,1.21
9,U8A G9U U10G U11G C12U C13U,1.35
10,U8A G9U U10G U11G C12U C13A,1.32
11,U8A U10A U11A C12U C13A,1.2
12,U8A U10A U11A C12U C13G,1.09
13,U8A U10A U11A C12U C13U,1.17
14,U8A U10C C12A C13U,1.26
15,U8A U10C C12A C13G,1.11
16,U8A U10C C12A C13A,1.23
17,U8A U10A U11C C12U C13A,1.08
18,U8A U10A U11C C12U C13U,1.06
19,U8A U10A U11C C12U C13G,1.09
20,U8A U10C U11G C12A,1.09
21,U8A U10C U11G C12G,1.23
22,U8A U10C U11G C12U,1.37
23,U8A U10A C12A,1.11
24,U8A U10A C12G,1.16

row,Variant,aptazyme ON/OFF ratio
1,U8A U10A C12U,1.11
2,U8A G9U U10G C12G C13G,1.15
3,U8A G9U U10G C12G C13A,1.29
4,U8A G9U U10G C12G C13U,1.28
5,U8A G9U U10G U11A C12A,1.21
6,U8A G9U U10G U11A C12G,1.28
7,U8A G9U U10G U11A C12U,1.05
8,U8A U10G U11A C12G C13G,1.51
9,U8A U10G U11A C12G C13A,1.2
10,U8A U10G U11A C12G C13U,1.15
11,U8A G9U U11C C12A C13A,1.14
12,U8A G9U U11C C12A C13G,1.07
13,U8A G9U U11C C12A C13U,1.11
14,U8A U10C U11G C13G,1.13
15,U8A U10C U11G C13A,1.21
16,U8A U10C U11G C13U,1.19
17,U8A G9U U10G C12A C13G,1.12
18,U8A G9U U10G C12A C13A,1.18
19,U8A G9U U10G C12A C13U,1.5
20,U8A U10G U11A C12U C13G,1.35
21,U8A U10G U11A C12U C13U,1.31
22,U8A U10G U11A C12U C13A,1.42
23,U8A G9U U10G U11C C12G C13A,1.08
